US9758785B2, “miR-520 microRNAs sensitize cancers to platinum-based therapy” (BAYLOR COLLEGE OF MEDICINE, priority 2012, dated 2017)
Entries after “also recorded” stand apart in the source; their conditions may differ.

Key:
[1] = test system: OVCAR8 cells; assay: Viability (MTS) across cisplatin concentrations, stable microRNA clones; assay type: cell-based, human; details: OVCAR8 stable clones vs non-silencing mimic, cisplatin <5 μg/mL
Protocol: (§1) Established ovarian cancer cell lines were obtained from the ATCC (OVCAR8, OVCAR5) and the University of Texas M.D. Anderson Cancer Center (HEYA8, SKOV3ip1). All cell lines were maintained at 37° C. in RPMI 1640 media (Invitrogen, Carlsbad, Calif.) supplemented with 10% fetal bovine serums (Hyclone, Logan, Utah) and 1% penicillin/streptomycin (Gibco, Carlsbad, Calif.). MicroRNA mimics and mimic controls (Dharmacon, Lafayette, Colo.) were transiently transfected into actively growing cultures using Lipofectamine 2000 (Invitrogen, Carlsbad, Calif.). After a 24-hour incubation, transfected cultures were washed, passaged and seeded into 96 well plates. Proliferation and apoptosis were measured at 72, 96 and 120 hours after transfection using standard assays (Cell Titer 96 Aqueous One; Caspase Glo 3/7; Promega, Madison, Wis.). pLemiR expression vectors (Open Biosystems/Thermo, Huntsville, Ala.) were prepared according to manufacturer's instructions and transfected into cells using Fugene 6 (Roche, Indianapolis, Ind.). Following transfection, stable clones were selected using puromycin (Invitrogen) at doses optimized for each line. Rates of proliferation and apoptosis were examined in stable transfectants 24, 48, 72 and 96 hours after selected cells had been passaged and dispensed into 96 well plates. Viability was assessed across a clinically relevant range of cisplatin concentrations using an MTS assay (Promega). Cisplatin was obtained from Teva Pharmaceuticals (Irvine, Calif.).
(§2) For this reason, the inventors created clones of OVCAR8 and SKOV3ip1 ovarian cancer cell lines stably expressing either miR-520h (n=3) and miR-520a (n=3). […] To assess the impact of these microRNAs on cisplatin-induced cell killing, the inventors examined the viability of OVCAR8 and SKOV3ip1 cells stably expressing either microRNA incubated with clinically relevant concentrations of cisplatin. […] It should be noted that SKOV3ip1 cells tolerated only very low levels of miR-520a expression. The impact of cisplatin treatment on rates of apoptosis differed dramatically between the two cell lines.

[2] = test system: SKOV3ip1 cells; assay: as above; assay type: cell-based, human; details: SKOV3ip1 stable clones vs non-silencing mimic
Protocol: as §1, §2

[3] = test system: HEY cells; assay: Proliferation assay; assay type: cell-based, human; details: mimic transfection
Protocol: as §1

[4] = test system: HEYA8 cells; assay: Proliferation assay; assay type: cell-based, human; details: HEYA8, acute mimic transfection
Protocol: as §1

[5] = test system: OVCAR5; assay: Proliferation assay; assay type: cell-based, human; details: OVCAR5, mimic transfection
Protocol: as §1

[6] = test system: phopho-CHK2 (T68); assay: Western blot of phospho-CHK2 in OVCAR8 cells; assay type: cell-based, human; details: OVCAR8 with cisplatin
Protocol: (§3) Whole cell lysates equivalent to 30 μg of protein were resolved on 4-12% gradient SDS-PAGE. Resolved proteins were transferred onto PVDF membranes using the iBlot system (Invitrogen). Rabbit polyclonal and/or mouse monoclonal antibodies specifically recognizing ATM, phospo-ATM (Ser1981) CHK1 phospho-CHK1 (Ser216), p21, phospo-CHK2 ([…]), BCL2, XIAP, CDC25A were obtained from Cell Signaling Technologies (Danvers, Mass.). A rabbit polyclonal antibody recognizing FANCD2 was also purchased from Abcam (Cambridge, Mass.). Protein expression was visualized using species-specific, horseradish peroxidase-conjugated secondary antibody (Cell Signaling) and ECL Plus chemiluminescent substrate (Amersham, Buckinghamshire, UK).

[7] = test system: CDC25c; assay: Western blot of CDC25c in OVCAR8 cells; assay type: cell-based, human; details: OVCAR8, particularly when exposed to cisplatin; listed as miR-520g/h
Protocol: as §3

[8] = test system: OVCAR8 xenografts; assay: Intraperitoneal ovarian cancer xenograft growth and metastasis; assay type: in vivo, mice; details: for Total intraperitoneal tumor burden: between the three groups
Protocol: Permission to perform animal experiments was obtained from the Institutional Animal Care and Use Committee (IACUC) for Baylor College of Medicine. Eight-week female athymic (Foxn1^nu/nu) mice were purchased from the National Cancer Institute-Charles River and maintained on a standard diet ad lib. Each animal was inoculated intraperitoneally with 2.5×10^6 cells stably transfected with vector driving miR-520h, a non-targeting miRNA control or empty vector. Expression of miR-520h was measured in cell lines using Taqman assays immediately prior to inoculation. Tumor xenografts were followed weekly for tumor progression or regression using the Image Station In-Vivo FX system (Kodak Molecular Imaging Systems, New Haven, Conn.) using endogenous RFP encoded by the pLemiR vector as a tag. At each time point, mice were anesthetized with isoflurane and placed in an imaging chamber, after which, fluorescent intensity images with x-ray overlay were obtained and analyzed. At the completion of the study, mice were euthanized after sedation under isoflurane (Abbott Laboratories, North Chicago, Ill.). For experiments involving treatment, cisplatin was administered at 5 mg/kg to mice by tail vein injection weekly for 4 weeks, after which, 1.5 mg/kg was administered biweekly. Tumor volume and distribution for all animals in each experiment were documented and correlated with imaging results.
The in vitro observations indicate that miR520g/h and/or miR-520a alter the proliferations of established ovarian cancer cell lines and in some embodiments are reasonably expected to promote their growth and metastasis in vivo. The inventors utilized xenograft models to characterize this embodiment. Foxn1^nu/nu mice were implanted subcutaneously or intraperitoneally with 2.5 million cells stably transfected with miR-520g/h, non-silencing microRNA control or empty vector alone. […] This difference was documented not only when tumor burden was measured according to the number and size of RFP active tumors that met imaging thresholds, but could also directly measured at necropsy (FIG. 5F). […]

[9] = test system: OVCAR8 xenografts; assay: Subcutaneous ovarian cancer xenograft; assay type: in vivo, mice; details: subcutaneous inoculation vs non-targeting control or empty vector
[10] = test system: SVOK3ip1 cells; assay: Spheroid formation; assay type: cell-based, human; details: cells stably expressing mimics
[11] = test system: lin28A/B; assay: Stemness gene expression in media that induce spheroid formation; assay type: cell-based, human; details: OVCAR8 and SKOV3ip1

B1: hsa-mir-520h MI0003175 (nucleic acid, listed as Homo sapiens)
chain: UCCCAUGCUGUGACCCUCUAGAGGAAGCACUUUCUGUUUGUUGUCUGAGAAAAAACAAAGUGCUUCCCUUUAGAGUUACUGUUUGGGA
modifications: expressed or natural sequence
notes: synthetic mimic or stably expressed from pLemiR vector; written miR-520g/h interchangeably
[1]
  Sensitization to cisplatin (viability): significantly sensitized
[1]; listed as miR-520g/h
  Sensitization to cisplatin (viability): sensitized
[2]
  Sensitization to cisplatin (viability): significantly sensitized
[2]; listed as miR-520g/h
  Sensitization to cisplatin (viability): appeared to sensitize
[3]
  Proliferation: no impact
[4]
  Proliferation: no significant impact
[5]
  Proliferation: no impact
[6]
  phospho-CHK2 (T68) level: increased levels
[7]
  CDC25c and phospho-CDC25c protein level: much lower; also recorded: decreased levels
[8]; OVCAR8 cells stably expressing the microRNA, intraperitoneal, no cisplatin, vs non-silencing control or empty vector, listed as miR-520g/h
  Number and size of intraperitoneal implants: larger number of smaller xenografts; also recorded: large number of smaller implants
[8]
  Total intraperitoneal tumor burden: did not differ significantly
[8]; listed as miR-520g/h
  Total intraperitoneal tumor burden: did not differ
[9]
  Implant size total tumor burden: significantly smaller
[10]
  Capacity to form spheroids: decreased capacity to form spheroids
[11]
  Spheroid-media-induced expression of stemness genes (lin28A/B): eliminates increased expression
